# From US20160122431A1 (MAYO FOUNDATION FOR MEDICAL EDUCATION AND RESEARCH, published 2016)
# T1: human B7-DC (human, UniProt Q9BQ51 20-273)
# T1 construct: whole, on cells; also called hB7.DC; human B7-DC orthologue
# T1 sequence (looked up): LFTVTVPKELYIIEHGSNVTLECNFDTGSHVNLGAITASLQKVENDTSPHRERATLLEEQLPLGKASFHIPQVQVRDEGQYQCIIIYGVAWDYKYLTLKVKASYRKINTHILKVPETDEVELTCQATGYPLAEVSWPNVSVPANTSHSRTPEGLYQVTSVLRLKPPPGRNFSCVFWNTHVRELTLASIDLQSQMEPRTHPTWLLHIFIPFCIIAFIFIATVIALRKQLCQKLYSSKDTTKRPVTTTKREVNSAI
# T2: murine B7-DC (murine, UniProt Q9WUL5 20-247)
# T2 sequence (looked up): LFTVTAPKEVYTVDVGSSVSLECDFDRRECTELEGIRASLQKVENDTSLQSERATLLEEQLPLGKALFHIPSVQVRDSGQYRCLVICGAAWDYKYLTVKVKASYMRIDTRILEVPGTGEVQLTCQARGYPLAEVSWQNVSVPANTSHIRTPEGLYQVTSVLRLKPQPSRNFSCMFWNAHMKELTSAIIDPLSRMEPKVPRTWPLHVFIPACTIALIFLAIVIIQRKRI
# Legend:
# human B7-DC = target: T1, human B7-DC; test: flow cytometry on Ltk cells transiently transfected with human B7-DC
# From the text: Furthermore, the level of sHIgM12 binding to L-cells was positively correlated with the amount of B7-DC plasmid used in the transfection.
# murine B7-DC = target: T2, murine B7-DC; test: cell-based or functional assay
binder,measurement,setting,value
"sHIgM12 (human monoclonal IgM antibody, pentameric) (antibody, IgM/kappa purified from human patient serum; A J chain is not mentioned; also called B7-DC cross-linking antibody; sHIgM12 antibody) heavy: QVQLQESGPGLLKPSETLSLTCTVSGGSVSLYYWSWIRQSPGKEPEWIGYIYSSGSTDYNPSLRSRVTISLDTSNNRFSLNLRSVTAADTAVYWCARSASIRGWFDPWGQGTLVTVSSGSASAPTLFPLVSCENSPSDTSSVAVGCLAQDFLPDSITFSWKYKNNSDISSTRGFPSVLRGGKYAATSQVLLPSKDVMQGTDEHVVCKVQHPNGNKEKNVPLPVIAELPPKVSVFVPPRDGFFGNPRKSKLICQATGFSPRQIQVSWLREGKQVGSGVTTDQVQAEAKESGPTTYKVTSTLTIKESDWLSQSMFTCRVDHRGLTFQQNASSMCVPDQDTAIRVFAIPPSFASIFLTKSTKLTCLVTDLTTYDSVTISWTRQNGEAVKTHTNISESHPNATFSAVGEASICEDDWNSGERFTCTVTHTDLPSPLKQTISRPKGVALHRPDVYLLPPAREQLNLRESATITCLVTGFSPADVFVQWMQRGQPLSPEKYVTSAPMPEPQAPGRYFAHSILTVSEEEWNTGETYTCVVAHEALPNRVTERTVDKSTGKPTLYNVSLVMSDTAGTCY light: not shown",binding result,human B7-DC,binds
same,"GFP+, CD11c+ DC recovered from draining lymph nodes after adoptive transfer",murine B7-DC,5 fold
same,"IL-12 p70 release by DC (ELISA), against LPS",murine B7-DC,~3 fold
same,ability of lymph node DC to induce an antigen-specific T cell response,murine B7-DC,10 fold
